Biological target: TLHL

B1: tobacco etch virus (TEV) protease (protein)
chain: GESLFKGPRDYNPISSTICHLTNESDGHTTSLYGIGFGPFIITNKHLFRRNNGTLLVQSLHGVFKVKNTTTLQQHLIDGRDMIIIRMPKDFPPFPQKLKFREPQREERICLVTTNFQTKSMSSMVSDTSCTFPSSDGIFWKHWIQTKDGQCGSPLVSTRDGFIVGIHSASNFTNTNNYFTSVPKNFMELLTNQEAQQWVSGWRLNADSVLWGGHKVFMSKPEEPFQPVKEATQLMNELVYSQ
proteolytic cleavage seen on SDS-PAGE: Incubation of TLHL with the TEV protease in PBS at room temperature or at 4 °C produced therefore, a 19kD band on an SDS-PAGE gel

Source: US6521741
